We go through 96 substances from the Human Domainome abundance scans (Beltran et al. 2025).

± gives the uncertainty stated by the source.

The data set can be described thus: abundance fitness (aPCA) (normalised: wild type 0, dead -1); higher = more abundant; growth selection in yeast, the domain comes from the species named. The following applies: Homo sapiens.
In turn, “Scaffold attachment factor B2 A40D, Q14151” registered an abundance fitness of -0.409 ± 0.25.

As for “Scaffold attachment factor B2 A40E, Q14151”, the abundance fitness came to 0.022 ± 0.097. Substance “Scaffold attachment factor B2 A40G, Q14151” returned an abundance fitness of -0.233 ± 0.1.

“Scaffold attachment factor B2 A40L, Q14151” registered an abundance fitness of -0.292 ± 0.12. Turning to “Scaffold attachment factor B2 A40M, Q14151”, the abundance fitness came to 0.613 ± 0.36. The substance “Scaffold attachment factor B2 A40P, Q14151” gave an abundance fitness of -0.433 ± 0.22. “Scaffold attachment factor B2 A40R, Q14151” yielded an abundance fitness of -0.368 ± 0.13.

On to “Scaffold attachment factor B2 A40S, Q14151”, for which the abundance fitness was -0.168 ± 0.12. The result for “Scaffold attachment factor B2 A40T, Q14151” reads -0.561 ± 0.17; that for “Scaffold attachment factor B2 A40W, Q14151”, -0.135 ± 0.31.

The substance “Scaffold attachment factor B2 A40Y, Q14151” showed an abundance fitness of -0.387 ± 0.11. Substance “Scaffold attachment factor B2 A63C, Q14151” came in with an abundance fitness of -0.235 ± 0.19. The figure for “Scaffold attachment factor B2 A63E, Q14151” is -0.325 ± 0.12. In turn, “Scaffold attachment factor B2 A63F, Q14151” displayed an abundance fitness of -0.628 ± 0.18. In turn, “Scaffold attachment factor B2 A63G, Q14151” had an abundance fitness of -0.324 ± 0.083. “Scaffold attachment factor B2 A63I, Q14151” registered an abundance fitness of -0.546 ± 0.16. For the substance “Scaffold attachment factor B2 A63K, Q14151”, the abundance fitness is -0.695 ± 0.15. Regarding “Scaffold attachment factor B2 A63L, Q14151”, the abundance fitness was -0.984 ± 0.16.

Consider “Scaffold attachment factor B2 A63M, Q14151”, for which the abundance fitness is -0.649 ± 0.13.

For the substance “Scaffold attachment factor B2 A63P, Q14151”, the abundance fitness was -0.608 ± 0.13. The substance “Scaffold attachment factor B2 A63Q, Q14151” displayed an abundance fitness of -0.292 ± 0.11.

The substance “Scaffold attachment factor B2 A63R, Q14151” showed an abundance fitness of -0.433 ± 0.089. The result for “Scaffold attachment factor B2 A63S, Q14151” reads -0.367 ± 0.13.

As for “Scaffold attachment factor B2 A63T, Q14151”, the abundance fitness is -0.44 ± 0.13. The figure for “Scaffold attachment factor B2 A63V, Q14151” is -0.175 ± 0.11. In the case of “Scaffold attachment factor B2 A63W, Q14151”, the abundance fitness was -0.63 ± 0.11. “Scaffold attachment factor B2 D37A, Q14151” came in with an abundance fitness of -0.513 ± 0.091. Regarding “Scaffold attachment factor B2 D37C, Q14151”, the abundance fitness was -0.548 ± 0.12.

“Scaffold attachment factor B2 D37E, Q14151” displayed an abundance fitness of -0.012 ± 0.095. The figure for “Scaffold attachment factor B2 D37F, Q14151” is -0.737 ± 0.12; for “Scaffold attachment factor B2 D37G, Q14151” it is -0.602 ± 0.076; for “Scaffold attachment factor B2 D37H, Q14151” it is -0.865 ± 0.16.

In the case of “Scaffold attachment factor B2 D37K, Q14151”, the abundance fitness is -1.19 ± 0.18. With “Scaffold attachment factor B2 D37L, Q14151”, the abundance fitness was -0.9 ± 0.14. The figure for “Scaffold attachment factor B2 D37M, Q14151” is -1 ± 0.21. Consider “Scaffold attachment factor B2 D37N, Q14151”, for which the abundance fitness was -0.883 ± 0.23. The figure for “Scaffold attachment factor B2 D37P, Q14151” is -0.463 ± 0.14. The result for “Scaffold attachment factor B2 D37Q, Q14151” reads -0.514 ± 0.11. The figure for “Scaffold attachment factor B2 D37R, Q14151” is -1.05 ± 0.083; for “Scaffold attachment factor B2 D37S, Q14151” it is -0.556 ± 0.1; for “Scaffold attachment factor B2 D37T, Q14151” it is -0.597 ± 0.089. In the case of “Scaffold attachment factor B2 D37V, Q14151”, the abundance fitness is -0.651 ± 0.088. The substance “Scaffold attachment factor B2 D37W, Q14151” showed an abundance fitness of -0.495 ± 0.086. In the case of “Scaffold attachment factor B2 D37Y, Q14151”, the abundance fitness is -0.797 ± 0.16.

“Scaffold attachment factor B2 D48A, Q14151”: the abundance fitness was -0.181 ± 0.085. The result for “Scaffold attachment factor B2 D48C, Q14151” reads -0.188 ± 0.11; that for “Scaffold attachment factor B2 D48F, Q14151”, -0.338 ± 0.36. Regarding “Scaffold attachment factor B2 D48G, Q14151”, the abundance fitness was -0.284 ± 0.077. The figure for “Scaffold attachment factor B2 D48I, Q14151” is -0.555 ± 0.13; for “Scaffold attachment factor B2 D48K, Q14151” it is -0.358 ± 0.084. The figure for “Scaffold attachment factor B2 D48L, Q14151” is -0.513 ± 0.094; for “Scaffold attachment factor B2 D48M, Q14151” it is -0.545 ± 0.14. “Scaffold attachment factor B2 D48P, Q14151” came in with an abundance fitness of 0.03 ± 0.089. The figure for “Scaffold attachment factor B2 D48Q, Q14151” is -0.329 ± 0.11; for “Scaffold attachment factor B2 D48R, Q14151” it is -0.625 ± 0.082; for “Scaffold attachment factor B2 D48S, Q14151” it is -0.214 ± 0.086. In the case of “Scaffold attachment factor B2 D48T, Q14151”, the abundance fitness is -0.526 ± 0.083. In the case of “Scaffold attachment factor B2 D48W, Q14151”, the abundance fitness is -0.757 ± 0.087. “Scaffold attachment factor B2 D48Y, Q14151” had an abundance fitness of -0.744 ± 0.14. The figure for “Scaffold attachment factor B2 D70A, Q14151” is 0.141 ± 0.14; for “Scaffold attachment factor B2 D70C, Q14151” it is -0.037 ± 0.12. “Scaffold attachment factor B2 D70E, Q14151”: the abundance fitness was 0.125 ± 0.12. As for “Scaffold attachment factor B2 D70F, Q14151”, the abundance fitness is -0.431 ± 0.15. The result for “Scaffold attachment factor B2 D70G, Q14151” reads -0.036 ± 0.11; that for “Scaffold attachment factor B2 D70H, Q14151”, -0.197 ± 0.13.

“Scaffold attachment factor B2 D70I, Q14151” had an abundance fitness of -0.258 ± 0.17.

With “Scaffold attachment factor B2 D70K, Q14151”, the abundance fitness is -0.337 ± 0.29. Regarding “Scaffold attachment factor B2 D70P, Q14151”, the abundance fitness was found to be 0.014 ± 0.13. “Scaffold attachment factor B2 D70S, Q14151” had an abundance fitness of -0.094 ± 0.15. With “Scaffold attachment factor B2 D70V, Q14151”, the abundance fitness was -0.283 ± 0.14.

In the case of “Scaffold attachment factor B2 D70W, Q14151”, the abundance fitness was -0.576 ± 0.16.

The substance “Scaffold attachment factor B2 E32A, Q14151” came in with an abundance fitness of -0.445 ± 0.11.

As to “Scaffold attachment factor B2 E32C, Q14151”, the abundance fitness was -0.33 ± 0.12. The substance “Scaffold attachment factor B2 E32D, Q14151” registered an abundance fitness of 0.003 ± 0.1. For the substance “Scaffold attachment factor B2 E32F, Q14151”, the abundance fitness was -0.873 ± 0.27.

On to “Scaffold attachment factor B2 E32H, Q14151”, for which the abundance fitness was -0.52 ± 0.23. With “Scaffold attachment factor B2 E32I, Q14151”, the abundance fitness is -0.657 ± 0.14. “Scaffold attachment factor B2 E32K, Q14151” had an abundance fitness of -0.355 ± 0.23. In the case of “Scaffold attachment factor B2 E32L, Q14151”, the abundance fitness was -0.543 ± 0.1. In the case of “Scaffold attachment factor B2 E32M, Q14151”, the abundance fitness was -0.554 ± 0.093. For the substance “Scaffold attachment factor B2 E32N, Q14151”, the abundance fitness amounted to 0.078 ± 0.35.

As to “Scaffold attachment factor B2 E32P, Q14151”, the abundance fitness is -0.474 ± 0.12.

“Scaffold attachment factor B2 E32Q, Q14151”: the abundance fitness is -0.135 ± 0.087. The result for “Scaffold attachment factor B2 E32R, Q14151” reads -0.431 ± 0.087; that for “Scaffold attachment factor B2 E32S, Q14151”, -0.36 ± 0.093; that for “Scaffold attachment factor B2 E32T, Q14151”, -0.07 ± 0.13.

“Scaffold attachment factor B2 E32V, Q14151” gave an abundance fitness of -0.393 ± 0.077. In the case of “Scaffold attachment factor B2 E32W, Q14151”, the abundance fitness was -0.621 ± 0.09. Substance “Scaffold attachment factor B2 E41L, Q14151” came in with an abundance fitness of -0.876 ± 0.35. In turn, “Scaffold attachment factor B2 E41R, Q14151” registered an abundance fitness of -1.09 ± 0.38. Take “Scaffold attachment factor B2 E41W, Q14151”: the abundance fitness was -1.02 ± 0.23. “Scaffold attachment factor B2 E58A, Q14151” yielded an abundance fitness of -0.129 ± 0.085. “Scaffold attachment factor B2 E58C, Q14151” gave an abundance fitness of -0.364 ± 0.12. In turn, “Scaffold attachment factor B2 E58D, Q14151” registered an abundance fitness of 0.001 ± 0.12.

As for “Scaffold attachment factor B2 E58F, Q14151”, the abundance fitness is -0.769 ± 0.11. The result for “Scaffold attachment factor B2 E58G, Q14151” reads -0.26 ± 0.077.
